Assay results as given in paper PMC8600288.

Target: AlyA3, PL17 alginate lyase from Zobellia galactanivorans DsijT (recombinant, His-tagged, without signal peptide) (Zobellia galactanivorans DsijT)
Assay: SEC

stoichiometry N: 2
Substance: AlyA3, PL17 alginate lyase from Zobellia galactanivorans DsijT (recombinant, His-tagged, without signal peptide) (enzyme)
